From patent publication US20210355220A1 (TIKCRO TECHNOLOGIES, published 2021) come the findings set out here.

In test [1] the target is T1, Pig (Sus scrofa) CTLA-4 on HEK293 cells (Sus scrofa, UniProt Q9MYX7 36-223).
T1 construct: whole, on cells; also called pig CTLA-4
Nature of the test: flow cytometry on HEK293 cells transiently expressing pig CTLA-4. As for the experimental part: Macaque (Macaca fascicularis), pig (Sus scrofa) and mouse (Mus musculus) CTLA-4 proteins were transiently expressed on the surface of HEK293 cells. […] Binding was measured using FACS and analyzed.
On the technique in general: Flow cytometry measures light scatter and fluorescence of single cells or particles in a stream.

The next test has as its target T2, hICOS on HEK293 cells (human, UniProt Q9Y6W8 21-199).
T2 construct: whole, on cells
T2 sequence (looked up): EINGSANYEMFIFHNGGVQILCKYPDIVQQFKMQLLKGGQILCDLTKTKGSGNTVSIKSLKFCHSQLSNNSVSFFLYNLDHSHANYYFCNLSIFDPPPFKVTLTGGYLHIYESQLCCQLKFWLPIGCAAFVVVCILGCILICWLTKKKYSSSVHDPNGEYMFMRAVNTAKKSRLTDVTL
Nature of the test: flow cytometry on transfected HEK293 cells. As for the experimental part:
(§1) HEK293 cells were transfected with expression vectors of the following immune-related proteins: hBTLA, hICOS, hCD28, hPDL1, hPD1, hPDL2, and hCTLA-4. Over-expression of the proteins was verified using commercial antibodies against each target. […] Antibody binding to cells was then detected using flow cytometry. Cells that were incubated only with the secondary antibody were used as a background control. […] Note that “+” indicates binding above the background level and “-” indicate no binding as compared to the background level.

For the next test, the target named is T3, hPDL2 on HEK293 cells (human, UniProt Q9BQ51 20-273).
T3 construct: whole, on cells
T3 sequence (looked up): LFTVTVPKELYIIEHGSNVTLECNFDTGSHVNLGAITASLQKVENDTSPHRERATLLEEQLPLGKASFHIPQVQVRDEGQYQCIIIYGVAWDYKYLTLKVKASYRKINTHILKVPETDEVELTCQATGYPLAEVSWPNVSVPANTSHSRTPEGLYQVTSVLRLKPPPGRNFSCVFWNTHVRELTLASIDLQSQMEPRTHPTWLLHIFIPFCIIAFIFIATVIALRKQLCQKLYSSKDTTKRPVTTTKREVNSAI
Nature of the test: flow cytometry on transfected HEK293 cells. How it is done: as §1

The target of a further test is T4, hPDL1 on HEK293 cells (human, UniProt Q9NZQ7 19-290).
T4 construct: whole, on cells
Put plainly: flow cytometry on transfected HEK293 cells. As for the experimental part:
as §1

For another test, the target named is T5, hBTLA on HEK293 cells (human, UniProt Q7Z6A9 31-289).
T5 construct: whole, on cells
Nature of the test: flow cytometry on transfected HEK293 cells. How it is done:
as §1

In the next test the target is T6, hCD28 on HEK293 cells (human, UniProt P10747 19-220).
T6 construct: whole, on cells
Put plainly: flow cytometry on transfected HEK293 cells. How it is done:
as §1

The target in the next test is T7, hPD1 on HEK293 cells (human, UniProt Q15116 25-288).
T7 construct: whole, on cells
Nature of the test: flow cytometry on transfected HEK293 cells. How it is done:
as §1

T1 sequence (Q9MYX7 36-223): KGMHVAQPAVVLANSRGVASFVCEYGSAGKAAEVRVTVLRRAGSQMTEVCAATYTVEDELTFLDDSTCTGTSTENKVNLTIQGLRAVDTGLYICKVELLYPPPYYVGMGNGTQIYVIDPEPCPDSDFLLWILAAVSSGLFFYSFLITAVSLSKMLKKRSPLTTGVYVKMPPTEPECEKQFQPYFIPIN
T7 sequence (Q15116 25-288): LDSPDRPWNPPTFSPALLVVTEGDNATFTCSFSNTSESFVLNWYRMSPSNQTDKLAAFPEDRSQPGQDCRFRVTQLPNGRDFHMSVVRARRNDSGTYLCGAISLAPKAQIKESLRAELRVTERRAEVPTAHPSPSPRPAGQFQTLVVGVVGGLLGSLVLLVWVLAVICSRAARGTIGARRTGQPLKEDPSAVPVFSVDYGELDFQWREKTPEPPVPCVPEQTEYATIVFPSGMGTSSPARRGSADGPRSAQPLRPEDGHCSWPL
T4 sequence (Q9NZQ7 19-290): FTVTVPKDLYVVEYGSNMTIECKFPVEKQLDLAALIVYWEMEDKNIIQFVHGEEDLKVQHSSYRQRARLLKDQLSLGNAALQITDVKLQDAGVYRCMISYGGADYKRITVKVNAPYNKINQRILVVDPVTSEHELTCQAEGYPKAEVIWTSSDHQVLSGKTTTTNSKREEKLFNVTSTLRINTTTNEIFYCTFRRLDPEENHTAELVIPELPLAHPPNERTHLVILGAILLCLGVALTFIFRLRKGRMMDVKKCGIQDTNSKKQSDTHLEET

B1: Ipilimumab (antibody, V domains shown)
VH: QVQLVESGGGVVQPGRSLRLSCAASGFTFSSYTMHWVRQAPGKGLEWVTFISYDGNNKYYADSVKGRFTISRDNSKNTLYLQMNSLRAEDTAIYYCARTGWLGPFDYWGQGTLVTVSS
VL: not shown
The EC50 is the concentration at which the effect is half-maximal. In test [1], B1 showed an EC50 of 671 nM. For the same molecule, the MFI in the test with hICOS on HEK293 cells stood at 67 MFI; in the test with hPDL2 on HEK293 cells, 73 MFI; with hPDL1 on HEK293 cells it was 70 MFI; with hBTLA on HEK293 cells, 67 MFI; with hCD28 on HEK293 cells, 67 MFI; in the test with hPD1 on HEK293 cells, 77 MFI.
